For eight molecules, activity (% of SEQ 40 inhibition) and activity results are on record in patent US20100004432, “APTAMER AGAINST MIDKINE AND USE THEREOF” (RIBOMIC INC., published 2010).

For data set [1], the target named is T1, midkine (full-length) (Homo sapiens, UniProt P21741 P21741:23-143).
T1 sequence: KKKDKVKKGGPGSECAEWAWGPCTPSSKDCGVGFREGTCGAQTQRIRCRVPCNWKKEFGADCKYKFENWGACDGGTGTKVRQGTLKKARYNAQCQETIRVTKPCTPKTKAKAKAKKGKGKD
The data set is described as follows: cell_activity. As to conditions: 500 nM; control.

Data set [2] has as its target T1, midkine (full-length). The data set is described as follows: cell_activity; UMR106 migration inhibition, 500 nM RNA. To be noted: tags: expressed in yeast.
Data set [3] deals with T1, midkine (full-length). The data set is described as above. To be noted: tags: expressed in yeast. The procedure: 30 μL of 1.5 μM midkine was applied to the outer surface of the membrane of Chemotaxicell (membrane pore diameter 8 μm, manufactured by Kurabo) to immobilize the midkine to the outer surface of the membrane. The midkine-immobilized Chemotaxicell was placed on a 24-well culture plate containing 500 μL of a medium (supplemented with 0.3% bovine serum albumin, Dulbecco's Modified Eagle's medium) supplemented with each RNA aptamer added thereto at 100 nM. 200 μL of UMR106 cells were placed in the inner layer of the Chemotaxicell chamber at a density of 1×10⁶ cells/mL, and cultured at 37° C. for 4 hours. The cells remaining in the inner layer of the Chemotaxicell chamber were removed, and the cells that had infiltrated and adhered to the midkine-applied surface were fixed with methanol. The Chemotaxicell chamber was immersed in a 1% aqueous solution of Crystal Violet for 30 minutes to stain the cells. After the Chemotaxicell chamber was washed with distilled water and dried, the pigment was extracted with a mixed solution of 200 μL of 1% SDS and 1% triton X100. 150 μL of the extract was transferred to a 96-well microplate, and its absorbance at 590 nm was determined.
The aptamer shown by SEQ ID NO:5 is 77 nucleotides long, having the 2′-position of the ribose of the pyrimidine nucleotide fluoro-substituted. To enable the chemical synthesis, to reduce the toxicity, and to improve the stability in the blood, miniaturization and stabilization of this aptamer were performed. The operations of miniaturization and stabilization were performed on the basis of the secondary structure estimated by the MFOLD program, and the activity was evaluated by a cell migration inhibition experiment. The RNA concentration in the cell migration inhibition experiment was 100 nM or 500 nM. Since some errors occur in experimental results depending on cell condition, a previously assayed sample was included as a positive control in each measurement.
The source holds these as a separate data set.

Consider tRNA, for which the activity (% of SEQ 40 inhibition) in the data set with midkine (full-length) [1] was found to be 28.

B1: SEQ ID NO:45-1 (ssRNA)
RNA: GGGAGAGGAGAAGAGGAAGUGCACAGGGGUUGGUGUCGGGUGCAC
modifications: 5' PEG2000-C12; 3' idT; 2'-F pyrimidines; 2'-OMe all A in 5' single-stranded part
On to B1, for which the activity with midkine (full-length) [2] is 100 % of SEQ ID NO:40.

B2: SEQ ID NO:45-3 (ssRNA)
RNA: B1 RNA
modifications: 2'-F pyrimidines; 2'-OMe all A in 5' single-stranded part and A, G in internal loop: a(M)g(M)ggg and c(F)g(M)g(M)g
As for B2, the activity in the data set with midkine (full-length) [2] is 56 % of SEQ ID NO:40.

B3: SEQ ID NO:45-4 (ssRNA)
RNA: B1 RNA
modifications: 2'-F pyrimidines; 2'-OMe all A in 5' single-stranded part and A, G in end stem: gu(F)g(M)c(F)a(M)c(F) and u(F)g(M)c(F)a(M)c(F)
For B3, in the data set with midkine (full-length) [2], the activity was 100 % of SEQ ID NO:40.

B4: SEQ ID NO:45-2 (ssRNA)
RNA: B1 RNA
modifications: 2'-F pyrimidines; 2'-OMe all A in 5' single-stranded part and G in loop: agggg(M)u(F)u(F)g(M)g(M)u(F)g(M)u(F)c(F)
Turning to B4, the activity in the data set with midkine (full-length) [2] is 100 % of SEQ ID NO:40.
As to GGGAAGGAGGAAGUGCACAGGGGUUGGUGUCGGGUGCAC (ssRNA, as 61-4 plus 2'-OMe: c(F)g(M)g(M)gu(F) near 3' end) [SEQ ID NO:61-7], in the data set with midkine (full-length) [3], the activity is 46 % of SEQ ID NO:40.
Turning to GGGAAGGAGGAAGUGCACAGGGGUUGGUGUCGGGUGCAC (ssRNA, 5' PEG2000; as 61-4 but a(M)gg(M)g(M)g(M) and ggg(M)u(F)) [SEQ ID NO:61-9], in the data set with midkine (full-length) [3], the activity is 39 % of SEQ ID NO:40.
Regarding GGGAAGGAGGAAGUGCACAGGGGUUGGUGUCGGGUGCAC (ssRNA, as 61-4 but a(M)g(M)gg(M)g(M) in place of aggg(M)g(M)) [SEQ ID NO:61-8], the activity with midkine (full-length) [3] was 54 % of SEQ ID NO:40.
